Legend:
polypeptide HER2/ECD [1] = biological target: T1, polypeptide HER2/ECD (human, UniProt P04626 23-646); experiment: ELISA, IgG on immobilized HER2/ECD
Description: The EC₅₀ of antibody was determined by titrating the antibody on immobilized HER2/ECD with ELISA. Briefly, NUNC 96-well Maxisorb immunoplates were coated with HER2/ECD peptides (0.2 μg per well) in PBS buffer (pH 7.4) via overnight incubation at 4° C., the plates were then blocked with 5% skim milk in PBST [0.05% (v/v) Tween 20] for 1 h. In the meantime, twofold serial dilutions of the antibody in PBST with 5% milk were performed and 11 different concentrations of the antibody were generated. After blocking, 100 μL diluted antibody samples were added to each well, and incubated for 1 h under gentle shaking. The plate was washed 6 times with 300 μL PBST and then added with 100 μL 1:2000-diluted horse-radish peroxidase/anti-human IgG antibody conjugate in PBST with 5% milk for 1 h incubation. The plates were washed 6 times with PBST buffer and twice with PBS, developed for 3 min with 3,3′,5,5′-tetramethyl-benzidine peroxidase substrate (Kirkegaard & Perry Laboratories), quenched with 1.0 M HCl and read spectrophotometrically at 450 nm.

polypeptide HER2/ECD [2] = biological target: T1, polypeptide HER2/ECD; experiment: SPR (BIAcore), HER2/ECD immobilized, IgG in flow
Description: BIAcore T200 (GE Healthcare) instrument was used to determine the binding affinities and kinetic parameters for interactions between antibody and antigen HER2/ECD. HER2/ECD in 10 mM acetate buffer (pH 5.0) was immobilized on a CM5 sensor chip to a response unit (RU) of 1000 with an amine coupling kit. Association (kₒₙ) and dissociation (koff) constants of the interactions between IgGs and HER2/ECD were measured in PBST running buffer (0.05% Tween 20) with a flow rate of 30 μL/min. […] Binding kinetics was determined by global fitting to 1:1 binding model using the Biaevaluation software (GE Healthcare).

B1: M62 (antibody)
chain: MAELDIQMIQSQKFMSTSVGDRVSVTCKASQNVGTNVAWYQQKPGQSPKALIHSASYRYSGVPDRFTGSGSGTDFTLTISNVQSEDLAEYFCQQYNSYPLTFGAGTKLEIKSSGGGGSGGGGGGSSRSSLEVQLQQSGTELARPGASVKLSCKASGYTFIDYYITWVKQRTGQGLEWIGEIYPGGGNPYYNDNFKGKASLTADKSSNTVYMQLSSLTSEDSAVYFCARSYKYDVSVYWGQGTLVTVSAAKTTPPSVTSAAAGAPVPYPDPLEPRAA
notes: also called antibody M62
- EC50 (polypeptide HER2/ECD [1]): 2 ng/mL
- Kd (polypeptide HER2/ECD [2]): 0.0228 nM
- koff (polypeptide HER2/ECD [2]): 1.8e-05 s⁻¹
- kon (polypeptide HER2/ECD [2]): 788000 M⁻¹ s⁻¹

B2: H32 (antibody)
chain: DIQMTQSPSSLSASVGDRVTITCKASQNVGTAVAWYQQKPGKAPKLLIYSASNRYTGVPSRFSGSGSGTDFTLTISSLQPEDFATYYCQQYSSYPLAFGQGTKVEIKRGGGGSIEGRSGGGGSEVQLVESGGGLVQPGGSLRLSCKASGFNIKDYFMYWVRQAPGKGLEWVGWIDPENGNTIYDPKFQGRFTISADTSKNTAYLQMNSLRAEDTAVYYCTRGYYGSRVLAMDYWGQGTLVTVSSASAAA
notes: also called antibody H32
- EC50 (polypeptide HER2/ECD [1]): 3.2 ng/mL
- Kd (polypeptide HER2/ECD [2]): 0.242 nM
- koff (polypeptide HER2/ECD [2]): 3.85e-05 s⁻¹
- kon (polypeptide HER2/ECD [2]): 159000 M⁻¹ s⁻¹

B3: M63 (antibody)
chain: MAELDAVVTQESALTTSPGETVTLTCRSSTGTVTTSNYANWVQEKPDHLFTGLIGGTKNRAPGVPARFSGSLIGDKAALTITGAQTEDEAIYFCALWYSNHWVFGGGTKLTVLGSSGGGGSGGGGGGSSRSSLEVQLQQSGPELVRPGDSVKISCKASGYTFSDYAVHWVKRSHGKSLEWIGVISIYYDNINYNQNFKGKATMTVDKSSSTAYLELARLTSEDSAIYYCARRGFDYWGPGTTLTVSSAKTTAPSVTSAAA
- EC50 (polypeptide HER2/ECD [1]): 2.4 ng/mL
- koff (polypeptide HER2/ECD [2]): 7.34e-05 s⁻¹

B4: M61 (antibody)
chain: MAELDIKITQSPASLSASVGETVTITCRASENIYSYLAWYQQKQGKSPQLLVYNAKTLAEGVPSRFSGSGSGTQFSLKINSLQPEDFGSYYCQHHYGTPYTFGGGTKLELKSSGGGGSGGGGGGSSRSSLEVQLQQSGAELVKPGASVKMSCKAFGYTFTTYPIEWMKQNHGKSLEWIGNFHPYNDDTKYNEKFKGKAKLTVEKSSSTVYLELSRLTSDDSAVYYCARRNDGYYGAMDYWGQGTSVTVSSAKTTAPSVTSAAAGAPVPYPDPLEPRAA
- EC50 (polypeptide HER2/ECD [1]): 3.5 ng/mL
- Kd (polypeptide HER2/ECD [2]): 0.591 nM
- koff (polypeptide HER2/ECD [2]): 0.0024 s⁻¹
- kon (polypeptide HER2/ECD [2]): 4.06e+06 M⁻¹ s⁻¹

B5: M41 (antibody)
chain: MAELDIQMTQTTSSLSASLGDRVTISCRTSQDISNYLNWYQQKPNGTIKLLIYYTSGLYSGVPSRFSGSGSGADYSLTISNVEQEDIATYFCQQVNTLPYTFGGGTKLELKSSGGGGSGGGGGGSSRSSFEVQLQQSGAELVKPGASVKMSCKAFGYTFTTYPIEWMKQNHGKSLEWIGNFHPYNDYTNYNEKFKGKAKLTVEKSSTTVYLELSRLTSDDSAVYYCARRHDGYYGAMDYWGQGTSVTVSSAKTTAPSVTSAAAGAPVPYPDPLEPRAA
notes: also called antibody M41
- EC50 (polypeptide HER2/ECD [1]): 3.4 ng/mL
- Kd (polypeptide HER2/ECD [2]): 0.0519 nM
- koff (polypeptide HER2/ECD [2]): 3.48e-05 s⁻¹
- kon (polypeptide HER2/ECD [2]): 671000 M⁻¹ s⁻¹

B6: M64 (antibody)
chain: MAELDIQMNQSHKFMSTSVGDRVSITCKASQDVSTAVAWYQQKPGQSPKLLIYWASTRHTGVPGRFTGSGSGADYTLTISSVQAEDLALYYCQQHYSTPYTFGGGTKLEIKSSGGGGSGGGGGGSSRSSLEVQLQQSGAELVKPGASVKLSCTASGFNIKNTYMHWVKQRPEQGLEWIGRIDPANGNTKYDPKLQGKATITADTSSNTAYLHLSSLTSEDTAVYYCVPYYRGAMDYWGQGTSVTVSSESQSFPNVTSAAAGAPVPYPDPLEPRAA
- EC50 (polypeptide HER2/ECD [1]): 3.1 ng/mL
- Kd (polypeptide HER2/ECD [2]): 0.195 nM
- koff (polypeptide HER2/ECD [2]): 0.000337 s⁻¹
- kon (polypeptide HER2/ECD [2]): 1.74e+06 M⁻¹ s⁻¹

B7: M32 (antibody)
chain: MAELGIELTQSQKFMSTSVGDRVSITCKASQNVGTAVAWYQQKPGQSPKLLIYSASNRYTGVPDRFTGSGSGTDFTLTISNMQSEDLADYFCQQYSSYPLAFGGGTKLEIKSSGGGGSGGGGGGSSRSSLEVQLVESGAELVRPGALVKLSCKASGFNIKDYFMYWVKQRPEQGLEWVGWIDPENGNTIYDPKFQGKASITADTSSNTAYLQLSSLTSEDTAVYYCTRGYYGSRVLAMDYWGQGTSVTVSSAKTTPPSVTSAAA
notes: also called antibody M32
- EC50 (polypeptide HER2/ECD [1]): 3.1 ng/mL
- Kd (polypeptide HER2/ECD [2]): 0.243 nM
- koff (polypeptide HER2/ECD [2]): 7.15e-05 s⁻¹
- kon (polypeptide HER2/ECD [2]): 294000 M⁻¹ s⁻¹

Reference: patent US20180009877A1 (ACADEMIA SINICA, published 2018)
